Results as given in patent US20210087268A1 (YUHAN, published 2021).

T1: human TIGIT expressed on CHO-S cells (CHO-hTIGIT) (human, UniProt Q495A1 22-244)
T1 construct: also called CHO-TIGIT cell line; TIGIT on the cell surface
T1 sequence: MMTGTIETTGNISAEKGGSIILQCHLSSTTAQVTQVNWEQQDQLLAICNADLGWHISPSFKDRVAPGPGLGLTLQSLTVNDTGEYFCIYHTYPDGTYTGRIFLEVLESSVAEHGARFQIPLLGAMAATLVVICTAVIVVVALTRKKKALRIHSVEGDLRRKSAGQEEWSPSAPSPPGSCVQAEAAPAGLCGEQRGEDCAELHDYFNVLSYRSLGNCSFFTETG

T2: TIGIT expressed on cells (TIGIT-expressing effector cell line of the Promega kit); TIGIT-overexpressing NK92 … (UniProt Q495A1 22-244, limits assumed)
T2 sequence (looked up): T1 sequence

T3: mouse TIGIT-Fc (rmTIGIT-Fc, R&D Systems) (mouse, UniProt P86176 29-148, limits assumed)
T3 construct: Bought protein; also called mouse TIGIT (rmTIGIT-Fc); not shown: Fc part of the bought fusion protein
T3 sequence (looked up): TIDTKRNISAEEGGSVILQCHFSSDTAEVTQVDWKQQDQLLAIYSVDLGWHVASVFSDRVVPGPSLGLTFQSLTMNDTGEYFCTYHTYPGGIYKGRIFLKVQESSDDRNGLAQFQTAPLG

T4: human TIGIT-Fc (rhTIGIT-Fc, R&D Systems) (human, UniProt Q495A1 22-141)
T4 construct: Bought protein; also called human TIGIT (rhTIGIT-Fc); not shown: Fc part of the bought fusion protein
T4 sequence: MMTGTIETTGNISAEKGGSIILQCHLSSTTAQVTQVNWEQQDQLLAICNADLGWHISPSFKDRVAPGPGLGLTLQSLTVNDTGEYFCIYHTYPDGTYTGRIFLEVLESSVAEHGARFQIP

B1: F04-10-IgG1 (antibody, V domains shown)
VH: EVQLLESGGGLVQPGGSLRLSCAASGFTFSSYYMSWVRQAPGKGLEWVSSIGSGSPSSTYYADSVKGRFTISRDNSKNTLYLQMNSLRAEDTAVYYCARSSYSGGNGYYYYAYAFDYWGQGTLVTVSS
VL: EIVLTQSPGTLSLSPGERATLSCRASQSVSSSYLAWYQQKPGQAPRLLIYGASSRATGIPDRFSGSGSGTDFTLTISRLEPEDFAVYYCQQGYHRYATFGQGTKVEIK
notes: also called antibody based on the F04-10 clones
B2: S64-39-IgG1 (antibody, V domains shown)
VH: EVQLLESGGGLVQPGGSLRLSCAASGFTFSNYAMSWVRQAPGKGLEWVSGISPSGSSIYYADSVQGRFTISRDNSKNTLYLQMNSLRAEDTAVYYCAKAIRTCSLSHCYYYYGMDVWGQGTLVTVSS
VL: QSVLTQPPSASGTPGQRVTISCSSSSSNIGSNAVNWYQQLPGTAPKLLIYYDNQRPSGVPDRFSGSKSGTSASLAISGLRSEDEADYYCATWDYSLSGYVFGGGTKLTVL
notes: also called 564-39-IgG1 [sic]; antibody based on the S64-39 clones
B3: S64-39-IgG4 (antibody, V domains shown)
VH: B2 VH
VL: B2 VL
notes: also called 564-39-IgG4 [sic]
B4: 10A7 antibody (antibody, V domains shown)
VH: EVQLVESGGGLTQPGKSLKLSCEASGFTFSSFTMHWVRQSPGKGLEWVAFIRSGSGIVFYADAVRGRFTISRDNAKNLLFLQMNDLKSEDTAMYYCARRPLGHNTFDSWGQGTLVTVSS
VL: DIVMTQSPSSLAVSPGEKVTMTCKSSQSLYYSGVKENLLAWYQQKPGQSPKLLIYYASIRFTGVPDRFTGSGSGTDYTLTITSVQAEDMGQYFCQQGINNPLTFGDGTKLEIKR

molecular target: T1, human TIGIT expressed on CHO-S cells …; experiment: flow cytometry on CHO-TIGIT cells
Description: In order to identify the binding ability of the three types of anti-TIGIT antibodies produced in Example 2 to TIGIT expressed on the cell surface, TIGIT-overexpressing CHO cell line (hereinafter referred to as CHO-TIGIT cell line) was treated with anti-TIGIT antibodies and then the anti-TIGIT antibodies bound to TIGIT on the cell surface were detected using a fluorescence flow cytometer.
Specifically, the CHO-TIGIT cell line was cultured in a 5% CO2 incubator at 37° C. for 48 to 72 hours using a chemical composition medium (CD FortiCHO Chemically Defined Medium+8 mM L-Glutamine+20 μg/mL Blasticidin+1% Anti-clumping agent). The cultured CHO-TIGIT cell line was harvested by centrifugation, diluted in FACS solution (PBS+5% FBS), and dispensed at a density of 1×10⁵ cells/well in a 96-well round bottom plate (Corning). Then, in order to completely remove the chemical composition medium remaining on the cell surface, the FACS solution was added, centrifuged at 2,000 rpm for 3 minutes and washed three times to remove the supernatant. The washed CHO-TIGIT cell line was re-suspended by addition of 100 μL of FACS solution. The anti-TIGIT antibody of each concentration, which was diluted to 2 times the final concentration using the FACS solution, was added at 100 μL to a 96-well round bottom plate in which the CHO-TIGIT cell line was dispensed, and incubated at 4° C. for 1 hour. Then, in order to remove the anti-TIGIT antibody remaining in the supernatant, without binding to the TIGIT on the cell surface, the FACS solution was added to each well, centrifuged at 2,000 rpm for 3 minutes, and washed three times to remove the supernatant. Then, in order to detect anti-TIGIT antibody bound to TIGIT on the cell surface, a goat anti-human IgG (H+L) cross-adsorbed secondary antibody (Invitrogen) was diluted to 10 μg/mL using a FACS solution, and 100 μL of the diluted antibody was incubated at 4° C. for 1 hour. After washing three times, each sample was transferred to a 12×75 mm tube (BD Biosciences) and analyzed using a fluorescence flow cytometer.

Point of comparison: B4, EC50 0.0165 µg/mL. Against it:
- B1 — within 1.5-fold, 0.0164 µg/mL
- B2 — 4.2-fold higher, 0.069 µg/mL
- B3 — 4.9-fold higher, 0.0808 µg/mL

molecular target: T2, TIGIT expressed on cells …; experiment: cell-based or functional assay

Point of comparison: B2, “binding inhibition (EC50), TIGIT/CD155 blockade assay, luminescence fold response” value 581 nM. Against it:
- B1 — 24-fold lower, 23.9 nM
- B3 — 1.9-fold higher, 1080 nM

molecular target: T3, mouse TIGIT-Fc (rmTIGIT-Fc, R&D Systems); experiment: SPR (BIAcore T200), antibody immobilised on CM5 chip, TIGIT-Fc flowed
From the text: (§1) In order to measure binding abilities of the three types of anti-TIGIT antibodies produced in Example 2 to human TIGIT (rhTIGIT-Fc) and mouse TIGIT (rmTIGIT-Fc), surface plasmon resonance (SPR) using a BIAcore T200 (GE Healthcare) was used. The SPR method is based on the principle that the refractive index of light passing through a sensor chip changes according to the state of a substance coated on the sensor chip. When an antigen or antibody was made to flow into the chip coated with the antigen or antibody, the refractive index is changed due to binding therebetween and the affinity (KD) value is calculated from the measured value.
(§2) An anti-TIGIT antibody was immobilized on a Series S CM5 sensor chip (GE Healthcare) to a level of 500 RU using a 10 mM acetate solution (pH 4.0) and an amine coupling kit (GE Healthcare). […] The association of the TIGIT-Fc proteins was measured at a rate of 30 μL/min for 600 seconds, the dissociation was measured for 2,000 seconds, and the regeneration was carried out in a 10 mM glycine solution (pH 1.5) at a rate of 100 μL/min for 25 seconds.

Point of comparison: B3, Kd 3.12 nM. Against it:
- B1 — 13-fold lower, 0.245 nM
- B2 — within 1.5-fold, 3.2 nM
- B4 — 17-fold lower, 0.182 nM

Point of comparison: B3, koff 0.000194 s⁻¹. Against it:
- B1 — 6.6-fold lower, 2.93e-05 s⁻¹
- B2 — within 1.5-fold, 0.000201 s⁻¹
- B4 — 2.2-fold lower, 8.91e-05 s⁻¹

Point of comparison: B1, kon 120000 M⁻¹ s⁻¹. Against it:
- B2 — 1.9-fold lower, 62800 M⁻¹ s⁻¹
- B3 — 1.9-fold lower, 62200 M⁻¹ s⁻¹
- B4 — 4.1-fold higher, 490000 M⁻¹ s⁻¹

molecular target: T4, human TIGIT-Fc (rhTIGIT-Fc, R&D Systems); experiment: as above
From the text: as §1, §2

Point of comparison: B3, Kd 1.15 nM. Against it:
- B1 — 2.2-fold lower, 0.533 nM
- B2 — within 1.5-fold, 1.31 nM
- B4 — within 1.5-fold, 1.19 nM

Point of comparison: B3, koff 3.23e-05 s⁻¹. Against it:
- B1 — within 1.5-fold, 3.76e-05 s⁻¹
- B2 — within 1.5-fold, 4.41e-05 s⁻¹
- B4 — 6-fold higher, 0.000193 s⁻¹

Point of comparison: B3, kon 28200 M⁻¹ s⁻¹. Against it:
- B1 — 2.5-fold higher, 70500 M⁻¹ s⁻¹
- B2 — within 1.5-fold, 33700 M⁻¹ s⁻¹
- B4 — 5.7-fold higher, 162000 M⁻¹ s⁻¹
